Laboratory results as given in publication PMC2905415, “Characterization of a Clp Protease Gene Regulator and the Reaeration Response in Mycobacterium tuberculosis”.

T1: Rv2745-S (ClgR, stabilized/soluble form) (Mycobacterium tuberculosis, UniProt P9WMH7 1-112, V111D;A112D)
T1 sequence: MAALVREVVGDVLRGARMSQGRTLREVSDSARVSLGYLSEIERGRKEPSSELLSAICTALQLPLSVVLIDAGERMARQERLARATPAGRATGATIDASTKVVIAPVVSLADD

T2: Rv2745-S L24SR25D (DBL) (Mycobacterium tuberculosis, UniProt P9WMH7 1-112, L24S;R25D;V111D;A112D)
T2 sequence: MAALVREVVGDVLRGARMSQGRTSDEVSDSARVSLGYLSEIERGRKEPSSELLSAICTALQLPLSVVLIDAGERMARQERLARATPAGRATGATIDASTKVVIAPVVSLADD


Experiments:
[1] = molecular target: T1, Rv2745-S (ClgR, stabilized/soluble form); assay: EMSA; conditions: protein: recombinant; tags: NusA fusion and His tag (pET50b), removed with HRV3C protease; chain copies: 2; label: 5' Cy5.5; blunt
Rv2745-S L24SR25D (DBL) = molecular target: T2, Rv2745-S L24SR25D (DBL); assay: EMSA; conditions: protein: recombinant; chain copies: 2; label: 5' Cy5.5; blunt
[2] = molecular target: T1, Rv2745-S (ClgR, stabilized/soluble form); assay: competition; conditions: protein: recombinant; tags: NusA fusion and His tag (pET50b), removed with HRV3C protease; chain copies: 2; blunt

| Binder | binding result [1] | binding result (Rv2745-S L24SR25D (DBL)) | binding result [2] |
| --- | --- | --- | --- |
| clpC1 promoter probe (dsDNA) DNA 1: CGAGCGGCCATCGGTTCGCCGCCAGCGAACGCGGCAAAGTAC DNA 2: GTACTTTGCCGCGTTCGCTGGCGGCGAACCGATGGCCGCTCG | binds | no binding | – |
| clpC1 promoter unlabeled competitor (dsDNA) DNA 1: CGAGCGGCCATCGGTTCGCCGCCAGCGAACGCGGCAAAGTAC DNA 2: GTACTTTGCCGCGTTCGCTGGCGGCGAACCGATGGCCGCTCG | – | – | binds |
